The record followed here is US7670782B2, “Screening of compounds for CAT1 transporter activity” (XenoPort, Inc., priority 2005, dated 2010).

This data set deals with NCCC[C@H](N)C(=O)O. Nature of the data set: cells, lysate or membranes. The settings on record: other: direct uptake into LLCPK-TREx-hCAT1 cells.

hCAT1 (Homo sapiens), sequence (chain, as listed by the source): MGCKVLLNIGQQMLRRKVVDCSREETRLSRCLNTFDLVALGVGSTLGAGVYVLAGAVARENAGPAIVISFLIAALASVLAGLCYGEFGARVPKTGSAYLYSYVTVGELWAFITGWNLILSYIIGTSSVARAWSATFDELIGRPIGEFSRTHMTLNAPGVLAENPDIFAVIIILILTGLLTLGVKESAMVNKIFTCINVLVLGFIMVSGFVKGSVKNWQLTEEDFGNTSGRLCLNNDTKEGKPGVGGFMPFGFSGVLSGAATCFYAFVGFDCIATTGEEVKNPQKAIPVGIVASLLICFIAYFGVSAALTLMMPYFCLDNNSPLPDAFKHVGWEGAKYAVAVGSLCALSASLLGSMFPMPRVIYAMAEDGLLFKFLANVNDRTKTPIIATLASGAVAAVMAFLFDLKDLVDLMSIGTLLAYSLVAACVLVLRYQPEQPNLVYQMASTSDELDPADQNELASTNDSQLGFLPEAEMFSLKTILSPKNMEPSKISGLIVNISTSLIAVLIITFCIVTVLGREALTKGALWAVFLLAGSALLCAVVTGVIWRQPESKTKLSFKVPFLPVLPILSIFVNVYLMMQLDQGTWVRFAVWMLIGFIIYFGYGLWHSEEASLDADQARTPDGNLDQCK

Turning to hCAT1 (Homo sapiens), the Michaelis-Menten constant (Km) is 200 µM. Moreover, the Km (5 minutes at room temperature, specific uptake (+TET minus no TET)) amounted to 184 µM.

As a reminder, the Km is the concentration of substrate that gives half-maximal velocity.
